According to patent publication US20140086829A1 (BIOREC S A, published 2014):
Substitutions are numbered along the chain they refer to.

B1: scFv L3H6 antibody fragment (scFv)
scFv: QQVQLVQSGAEVKKPGESLKISCKGSGYSFTSYWIGWVRQMPGKGLEWMGIIYPGDSDTRYSPSFQGQVTISADKSISTAYLQWSSLKASDTAMYYCARQGTHNRKIWGQGTMVTVSSAPQAKSSGSGSESKVDQAVVTQEPSLTVSPGGTVTLTCASSTGAVTSGNYPNWFQQRPGQPPRALIYSTSNKHSWTPARFSGSLLGGKAALTLSGAQPEDEAEYYCRLSYDLARPVFGGGTKLTVLG
notes: soluble, from E. coli
B2: scFv L3H5 antibody fragment (scFv)
scFv: B1 scFv with Q100L, G101V, T102H, H103R, N104Y, K106A
notes: soluble, from E. coli
B3: scFv L3H7 antibody fragment (scFv)
scFv: B1 scFv with Q100P, G101Y, T102A, H103T, N104D, R105T, K106R
notes: soluble, from E. coli
B4: Fab 2H1-32 (Fab, V domains shown)
VH: QVQLVQSGAEVKKPGESLKISCKGSGYSFTSYWIGWVRQMPGKGLEWMGIIYPGDSDTRYSPSFQGQVTISADKSISTAYLQWSSLKASDTAMYYCARLVVRDTEIWGQGTMVTVSS
VL: QAVVTQEPSLTVSPGGTVTLTCASSIGAVTSGNYPNWFQQRPGQPPRALIYSTSNKHSWTPARFSGSLLGGKAALTLSGAQPEDEAEYYCLLSYSGARPVFGGGTKLTVLG
B5: Fab L3H6 (Fab, V domains shown)
VH: B4 VH with L99Q, V100G, V101T, R102H, D103N, T104R, E105K
VL: B4 VL with I26T, L91R, S95D, G96L
notes: The entries are the mature chains without the six histidines and c-myc that the heavy chain carried at its C-terminus in the assay
B6: Fab L3H7 (Fab, V domains shown)
VH: B4 VH with L99P, V100Y, V101A, R102T, E105R
VL: B4 VL with I26T, L91R, S95D, G96L
notes: Entries lack the six histidines and c-myc of the heavy chain
B7: Fab L3H5 (Fab, V domains shown)
VH: B4 VH with V101H, D103Y, T104R, E105A
VL: B4 VL with I26T, L91R, S95D, G96L
notes: as for B6
B8: phage displayed scFv clone 4D8 (scFv)
scFv: B1 scFv with Q100P, G101Y, T102A, H103T, N104D, R105T, K106R, R225L, D229S, L230G
modifications: Displayed on M13 phage as a protein III fusion; the phage part is not in the letters.
notes: also called VH H7
B9: phage displayed scFv clone 3F3 (scFv)
scFv: B1 scFv with R225L, D229S, L230G
modifications: Displayed on M13 phage as a protein III fusion; the phage part is not in the letters.
notes: also called VH H6

What follows are binders tested against T1, isoform 165 of human VEGF-A (Peprotech) (human, UniProt P15692-4 27-191) (assay: ELISA; antigen coated 1 µg/ml; scFv 10 µg/mL; 9E10-peroxidase).
T1 construct: also called human VEGF165; VEGF 165
Target sequence in this assay (P15692 other isoform, or with tags, fused parts or gaps limits assumed): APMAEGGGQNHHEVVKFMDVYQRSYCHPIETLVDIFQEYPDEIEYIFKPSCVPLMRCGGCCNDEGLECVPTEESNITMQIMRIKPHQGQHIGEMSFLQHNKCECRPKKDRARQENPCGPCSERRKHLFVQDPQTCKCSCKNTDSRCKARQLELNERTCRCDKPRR
Procedure: (§1) After several washes, 9E10 monoclonal antibody conjugated to peroxidase was added for 1 hour. After washing, the fragments bound to the solid phase were detected by the addition of substrate solution. The absorbance was read at 492 nm in a microplate reader.

| Binder | absorbance at 492 nm |
| --- | --- |
| B1 | 2.89 |
| B2 | 2.8 |
| B3 | 2.51 |

These binders were tested against T2, isoform 121 of human VEGF-A (Peprotech) (human, UniProt P15692-9 27-147) in the same assay as above.
T2 construct: also called human VEGF121; VEGF 121
T2 sequence (looked up): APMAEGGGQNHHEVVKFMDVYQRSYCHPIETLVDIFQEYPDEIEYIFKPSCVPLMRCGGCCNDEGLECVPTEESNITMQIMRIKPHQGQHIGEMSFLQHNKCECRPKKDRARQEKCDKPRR
Procedure: as §1

| Binder | absorbance at 492 nm |
| --- | --- |
| B1 | 2.84 |
| B2 | 2.78 |
| B3 | 2.54 |

The binders below were run against T3, mouse VEGF (Peprotech) (mouse, UniProt Q00731-2 27-190, limits assumed) in the same assay as above.
T3 construct: also called Mouse VEGF-A
T3 sequence (looked up): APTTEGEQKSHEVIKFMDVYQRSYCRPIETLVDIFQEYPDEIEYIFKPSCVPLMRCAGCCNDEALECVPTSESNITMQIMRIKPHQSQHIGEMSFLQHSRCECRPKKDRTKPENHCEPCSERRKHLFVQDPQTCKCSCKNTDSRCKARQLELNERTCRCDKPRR

| Binder | absorbance at 492 nm |
| --- | --- |
| B1 | 1.43 |
| B2 | 1.39 |
| B3 | 1.12 |

These binders were tested against P64K-VEGFKDR- (human) (UniProt P15692) in the same assay as above.

| Binder | absorbance at 492 nm |
| --- | --- |
| B1 | 2.77 |
| B2 | 2.61 |
| B3 | 2.47 |

Each binder was assayed against P64K-VEGFKDR- (human) (UniProt P15692) (assay: ELISA; antigen coated 1 µg/ml; Fab 10 µg/mL; 9E10-peroxidase).

| Binder | absorbance at 492 nm |
| --- | --- |
| B4 | 0.704 |
| B5 | 2.6 |
| B6 | 2.42 |
| B7 | 2.51 |

Each binder was assayed against T1, isoform 165 of human VEGF-A (Peprotech) (assay: SPR, BIAcore-X; VEGF 165 coupled to CM5 chip; scFv injected; Langmuir 1:1).
Target sequence in this assay (P15692 other isoform, or with tags, fused parts or gaps limits assumed): as the sequence (P15692 other isoform, or with tags, fused parts or gaps limits assumed) above
Procedure: (§2) A CM5 sensor chip was activated via the covalent binding of human VEGF using N-Ethyl-N′-(3-dimethylaminopropyl)carbodihimide hydrochloride (EDC) and N-hydroxysuccinimide (NHS), according to the manufacturer's instructions.
(§3) The kinetic parameters and the equilibrium dissociation constants (KD) were calculated using the BIA Evaluation 3.2 software. The binding data were globally adjusted to a Langmuir 1:1 binding model.

| Binder | Kd |
| --- | --- |
| B1 | 26.1 nM |
| B2 | 42.1 nM |
| B3 | 87.3 nM |

These binders were tested against T1, isoform 165 of human VEGF-A (Peprotech) (assay: SPR, BIAcore-X).
Procedure: as §2, §3

| Binder | fold affinity against scFv 2H1 |
| --- | --- |
| B1 | 5 to 20 fold |
| B3 | 5 to 20 fold |

Each binder was assayed against T1, isoform 165 of human VEGF-A (Peprotech) (assay: ELISA; antigen coated 1 µg/ml; Fab 10 µg/mL; 9E10-peroxidase).
Target sequence in this assay (P15692 other isoform, or with tags, fused parts or gaps limits assumed): as the sequence (P15692 other isoform, or with tags, fused parts or gaps limits assumed) above
Procedure: (§4) After blocking the plates with PBS-skimmed milk 4%, the Fab antibody fragments diluted in PBS-skimmed milk 4% were added at a 10 μg/mL concentration, and incubated for 1 h at 22° C. After several washes, 9E10 monoclonal antibody conjugated to peroxidase was added for 1 hour. After washing, the fragments bound to the solid phase were detected by the addition of substrate solution. The absorbance was read at 492 nm in a microplate reader.

| Binder | absorbance at 492 nm |
| --- | --- |
| B4 | 0.601 |
| B5 | 2.46 |
| B6 | 2.2 |
| B7 | 2.35 |

These binders were tested against T2, isoform 121 of human VEGF-A (Peprotech) in the same assay as above.
Procedure: as §4

| Binder | absorbance at 492 nm |
| --- | --- |
| B4 | 0.589 |
| B5 | 2.56 |
| B6 | 2.22 |
| B7 | 2.25 |

Each binder was assayed against T3, mouse VEGF (Peprotech) in the same assay as above.
Procedure: as §4

| Binder | absorbance at 492 nm |
| --- | --- |
| B4 | 0.091 |
| B5 | 1.19 |
| B6 | 1.1 |
| B7 | 1.09 |

The binders below were run against T4, human GST-VEGF (human, UniProt P15692-9 27-147) (assay: competition ELISA on coated GST-VEGF with soluble scFv 2H1).
T4 construct: also called GST-VEGF humano; not shown: GST fusion partner
T4 sequence (looked up): T2 sequence (looked up)

| Binder | fold IC50 (relative affinity) against the original phage displayed scFv 2H1 |
| --- | --- |
| B8 | 6 to 10 fold |
| B9 | 6 to 10 fold |

What follows are binders tested against T2, isoform 121 of human VEGF-A (Peprotech) (assay: competition ELISA: human VEGF-A isoform 121 coated, scFv varied, blocked ligand soluble KDR-Fc (VEGFR2) at 0.5 ug/mL, bound KDR-Fc detected with anti-human IgG-HRPO, absorbance 492 nm).
Source text: Detection of bound soluble receptors was made using anti human IgG antibodies conjugated with HRPO.

| Binder | IC50 (read off the curve) |
| --- | --- |
| B1 | ~8 µg/mL |
| B2 | ~9 µg/mL |
| B3 | ~10 µg/mL |
